This is an account of results in article PMC6774866 (Molecular immunology, 2019).

The term Kd denotes the free concentration of one partner at which half of the binding sites on the other are occupied at equilibrium, for simple one-to-one binding. Low readings indicate a tighter complex, high ones a looser complex.

Where no end group is shown, it is not given here.

One test has as its target T1, eGFP-UBC6e(168-186) (Mus musculus (printed stretch matches …, UniProt Q9JJZ4, chimera, also: joined to eGFP)).
T1 chain: GSSQADQEAKELARQISFK-NH2
Kind of test: pull-down.

In test [1] the target is T2, Arl3 sortagged with the UBC6e(168-186) tag (Mus musculus (UBC6e tag), UniProt Q9JJZ4, chimera, also: sortagged to Arl3).
T2 chain: GSSQADQEAKELARQISFK-NH2
Description: pull-down.

For test [2], the target named is T3, Biotinylated 14-residue UBC6e peptide (Mus musculus (identical in human), UniProt Q9JJZ4, also: biotin, position not given here).
T3 chain: QADQEAKELARQIS-NH2
Description: BLI. A general note: Biolayer interferometry detects binding as a change in optical thickness at a sensor tip.

Test [3] deals with UBC6e(1-197), randomly biotinylated with biotin-NHS (Mus musculus, UniProt Q9JJZ4, biotin on exposed Lys residues (random, biotin-N-hydroxysuccinimide ester)). Kind of test: BLI.
Sequence of UBC6e(1-197), randomly biotinylated with biotin-NHS (Q9JJZ4 1-197): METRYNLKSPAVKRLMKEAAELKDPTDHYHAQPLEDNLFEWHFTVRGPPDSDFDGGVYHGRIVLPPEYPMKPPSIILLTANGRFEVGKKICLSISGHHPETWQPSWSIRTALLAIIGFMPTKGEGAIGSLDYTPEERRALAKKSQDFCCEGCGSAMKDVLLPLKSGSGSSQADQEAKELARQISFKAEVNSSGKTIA
Test [4] concerns the target UBC6e(1-197)-LPETGGG-biotin (Mus musculus, UniProt Q9JJZ4, biotin at the C-terminus (LPETGGG-biotin, by sortagging)). Description: BLI.

Sequence of UBC6e(1-197)-LPETGGG-biotin (Q9JJZ4 1-197): as above

B1: VHH05 (VHH)
VHH: QVQLQESGGGLVQPGGSLRLSCAASGFVFENSAMAWYRQAPGKERELIAVIGTTFIKLAESVKGRFTISRDNAKSTVYLQMNNLKPEDTAVYYCSKSGAYWGQGTQVTVSS
B1: the binding result (with eGFP-UBC6e(168-186); in test [1]) was “binds” each time. The values for the dissociation constant Kd in test [2], in test [3] and in test [4] were around 0.15 nM, 14 nM and 16 nM, respectively.
